How the values were obtained:
Assay in all cases: cell-based or functional assay
[1] = target: Notch on primary rat oligodendrocytes and oligodendrocyte precursor cells (rat) (UniProt Q07008)
[2] = target: Notch1 of mouse neural stem cells (NSCs) (mouse) (UniProt Q01705)
[3] = target: myc-tagged full-length mouse Notch1 on transfected OLN cells (mouse) (UniProt Q01705)
myc-tagged full-length mouse Notch1 on transfected OLN cells (mouse), sequence (Q01705 19-2531): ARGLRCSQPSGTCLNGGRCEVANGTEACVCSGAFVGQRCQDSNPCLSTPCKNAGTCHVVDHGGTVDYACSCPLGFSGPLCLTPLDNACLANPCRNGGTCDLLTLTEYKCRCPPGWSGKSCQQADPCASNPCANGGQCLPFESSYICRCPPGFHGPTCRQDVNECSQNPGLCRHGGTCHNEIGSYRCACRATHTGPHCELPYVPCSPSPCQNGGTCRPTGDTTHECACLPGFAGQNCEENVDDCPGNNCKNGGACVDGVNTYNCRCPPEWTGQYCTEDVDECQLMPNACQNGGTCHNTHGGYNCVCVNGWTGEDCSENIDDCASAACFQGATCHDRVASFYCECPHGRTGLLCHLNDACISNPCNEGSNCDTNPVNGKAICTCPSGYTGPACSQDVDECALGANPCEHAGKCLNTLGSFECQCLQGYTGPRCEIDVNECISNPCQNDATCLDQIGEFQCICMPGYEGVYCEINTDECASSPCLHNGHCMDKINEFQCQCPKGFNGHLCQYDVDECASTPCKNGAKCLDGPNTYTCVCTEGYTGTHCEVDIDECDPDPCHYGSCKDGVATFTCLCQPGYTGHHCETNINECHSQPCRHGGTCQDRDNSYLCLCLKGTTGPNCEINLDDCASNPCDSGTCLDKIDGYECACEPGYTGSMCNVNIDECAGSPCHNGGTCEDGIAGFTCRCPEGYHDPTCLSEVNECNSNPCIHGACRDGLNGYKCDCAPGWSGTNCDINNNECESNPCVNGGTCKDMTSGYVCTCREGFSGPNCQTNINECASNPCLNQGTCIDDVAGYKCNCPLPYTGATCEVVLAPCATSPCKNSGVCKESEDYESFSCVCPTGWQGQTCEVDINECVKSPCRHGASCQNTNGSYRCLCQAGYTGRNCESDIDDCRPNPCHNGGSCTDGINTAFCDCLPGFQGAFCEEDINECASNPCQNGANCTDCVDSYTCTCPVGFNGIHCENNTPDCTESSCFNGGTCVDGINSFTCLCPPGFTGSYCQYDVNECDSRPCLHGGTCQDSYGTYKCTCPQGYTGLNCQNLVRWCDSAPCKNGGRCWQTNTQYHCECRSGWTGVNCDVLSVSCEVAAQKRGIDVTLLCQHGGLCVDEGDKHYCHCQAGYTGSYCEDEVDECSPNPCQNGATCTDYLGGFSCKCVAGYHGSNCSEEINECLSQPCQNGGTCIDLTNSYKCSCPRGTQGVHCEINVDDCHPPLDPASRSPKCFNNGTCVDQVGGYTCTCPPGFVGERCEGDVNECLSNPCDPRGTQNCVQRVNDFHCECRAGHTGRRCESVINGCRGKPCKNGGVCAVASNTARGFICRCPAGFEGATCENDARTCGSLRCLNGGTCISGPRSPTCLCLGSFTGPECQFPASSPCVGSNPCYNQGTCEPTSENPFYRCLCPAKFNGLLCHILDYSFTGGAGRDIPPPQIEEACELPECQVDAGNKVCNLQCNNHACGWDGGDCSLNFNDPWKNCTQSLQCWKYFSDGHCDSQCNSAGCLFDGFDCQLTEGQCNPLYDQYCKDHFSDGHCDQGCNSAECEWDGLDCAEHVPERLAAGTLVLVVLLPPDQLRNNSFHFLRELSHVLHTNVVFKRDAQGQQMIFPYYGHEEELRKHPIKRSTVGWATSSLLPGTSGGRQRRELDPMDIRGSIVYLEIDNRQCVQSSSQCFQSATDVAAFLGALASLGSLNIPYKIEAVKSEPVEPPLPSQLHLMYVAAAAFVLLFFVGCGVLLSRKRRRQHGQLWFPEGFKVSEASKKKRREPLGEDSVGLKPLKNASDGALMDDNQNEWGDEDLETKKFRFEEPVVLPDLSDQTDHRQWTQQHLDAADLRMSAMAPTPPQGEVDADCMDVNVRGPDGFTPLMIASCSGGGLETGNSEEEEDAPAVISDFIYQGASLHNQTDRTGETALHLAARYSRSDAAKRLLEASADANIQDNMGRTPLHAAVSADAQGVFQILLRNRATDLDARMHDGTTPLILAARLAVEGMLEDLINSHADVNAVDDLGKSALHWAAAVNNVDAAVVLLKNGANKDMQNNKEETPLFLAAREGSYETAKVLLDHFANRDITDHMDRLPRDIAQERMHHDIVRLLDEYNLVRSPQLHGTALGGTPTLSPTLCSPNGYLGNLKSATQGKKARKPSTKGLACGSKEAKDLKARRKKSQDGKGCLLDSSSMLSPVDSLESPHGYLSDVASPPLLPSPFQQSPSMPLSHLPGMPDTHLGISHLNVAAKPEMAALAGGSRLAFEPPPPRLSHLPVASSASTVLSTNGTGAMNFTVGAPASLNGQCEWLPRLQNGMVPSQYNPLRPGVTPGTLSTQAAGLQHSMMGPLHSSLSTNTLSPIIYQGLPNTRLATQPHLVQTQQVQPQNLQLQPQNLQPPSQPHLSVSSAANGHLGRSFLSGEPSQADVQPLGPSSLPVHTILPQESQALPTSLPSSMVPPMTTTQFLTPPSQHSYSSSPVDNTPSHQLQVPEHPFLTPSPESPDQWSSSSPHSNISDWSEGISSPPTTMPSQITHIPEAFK

Notch on primary rat oligodendrocytes and oligodendrocyte precursor cells (rat), sequence (Q07008 19-2531): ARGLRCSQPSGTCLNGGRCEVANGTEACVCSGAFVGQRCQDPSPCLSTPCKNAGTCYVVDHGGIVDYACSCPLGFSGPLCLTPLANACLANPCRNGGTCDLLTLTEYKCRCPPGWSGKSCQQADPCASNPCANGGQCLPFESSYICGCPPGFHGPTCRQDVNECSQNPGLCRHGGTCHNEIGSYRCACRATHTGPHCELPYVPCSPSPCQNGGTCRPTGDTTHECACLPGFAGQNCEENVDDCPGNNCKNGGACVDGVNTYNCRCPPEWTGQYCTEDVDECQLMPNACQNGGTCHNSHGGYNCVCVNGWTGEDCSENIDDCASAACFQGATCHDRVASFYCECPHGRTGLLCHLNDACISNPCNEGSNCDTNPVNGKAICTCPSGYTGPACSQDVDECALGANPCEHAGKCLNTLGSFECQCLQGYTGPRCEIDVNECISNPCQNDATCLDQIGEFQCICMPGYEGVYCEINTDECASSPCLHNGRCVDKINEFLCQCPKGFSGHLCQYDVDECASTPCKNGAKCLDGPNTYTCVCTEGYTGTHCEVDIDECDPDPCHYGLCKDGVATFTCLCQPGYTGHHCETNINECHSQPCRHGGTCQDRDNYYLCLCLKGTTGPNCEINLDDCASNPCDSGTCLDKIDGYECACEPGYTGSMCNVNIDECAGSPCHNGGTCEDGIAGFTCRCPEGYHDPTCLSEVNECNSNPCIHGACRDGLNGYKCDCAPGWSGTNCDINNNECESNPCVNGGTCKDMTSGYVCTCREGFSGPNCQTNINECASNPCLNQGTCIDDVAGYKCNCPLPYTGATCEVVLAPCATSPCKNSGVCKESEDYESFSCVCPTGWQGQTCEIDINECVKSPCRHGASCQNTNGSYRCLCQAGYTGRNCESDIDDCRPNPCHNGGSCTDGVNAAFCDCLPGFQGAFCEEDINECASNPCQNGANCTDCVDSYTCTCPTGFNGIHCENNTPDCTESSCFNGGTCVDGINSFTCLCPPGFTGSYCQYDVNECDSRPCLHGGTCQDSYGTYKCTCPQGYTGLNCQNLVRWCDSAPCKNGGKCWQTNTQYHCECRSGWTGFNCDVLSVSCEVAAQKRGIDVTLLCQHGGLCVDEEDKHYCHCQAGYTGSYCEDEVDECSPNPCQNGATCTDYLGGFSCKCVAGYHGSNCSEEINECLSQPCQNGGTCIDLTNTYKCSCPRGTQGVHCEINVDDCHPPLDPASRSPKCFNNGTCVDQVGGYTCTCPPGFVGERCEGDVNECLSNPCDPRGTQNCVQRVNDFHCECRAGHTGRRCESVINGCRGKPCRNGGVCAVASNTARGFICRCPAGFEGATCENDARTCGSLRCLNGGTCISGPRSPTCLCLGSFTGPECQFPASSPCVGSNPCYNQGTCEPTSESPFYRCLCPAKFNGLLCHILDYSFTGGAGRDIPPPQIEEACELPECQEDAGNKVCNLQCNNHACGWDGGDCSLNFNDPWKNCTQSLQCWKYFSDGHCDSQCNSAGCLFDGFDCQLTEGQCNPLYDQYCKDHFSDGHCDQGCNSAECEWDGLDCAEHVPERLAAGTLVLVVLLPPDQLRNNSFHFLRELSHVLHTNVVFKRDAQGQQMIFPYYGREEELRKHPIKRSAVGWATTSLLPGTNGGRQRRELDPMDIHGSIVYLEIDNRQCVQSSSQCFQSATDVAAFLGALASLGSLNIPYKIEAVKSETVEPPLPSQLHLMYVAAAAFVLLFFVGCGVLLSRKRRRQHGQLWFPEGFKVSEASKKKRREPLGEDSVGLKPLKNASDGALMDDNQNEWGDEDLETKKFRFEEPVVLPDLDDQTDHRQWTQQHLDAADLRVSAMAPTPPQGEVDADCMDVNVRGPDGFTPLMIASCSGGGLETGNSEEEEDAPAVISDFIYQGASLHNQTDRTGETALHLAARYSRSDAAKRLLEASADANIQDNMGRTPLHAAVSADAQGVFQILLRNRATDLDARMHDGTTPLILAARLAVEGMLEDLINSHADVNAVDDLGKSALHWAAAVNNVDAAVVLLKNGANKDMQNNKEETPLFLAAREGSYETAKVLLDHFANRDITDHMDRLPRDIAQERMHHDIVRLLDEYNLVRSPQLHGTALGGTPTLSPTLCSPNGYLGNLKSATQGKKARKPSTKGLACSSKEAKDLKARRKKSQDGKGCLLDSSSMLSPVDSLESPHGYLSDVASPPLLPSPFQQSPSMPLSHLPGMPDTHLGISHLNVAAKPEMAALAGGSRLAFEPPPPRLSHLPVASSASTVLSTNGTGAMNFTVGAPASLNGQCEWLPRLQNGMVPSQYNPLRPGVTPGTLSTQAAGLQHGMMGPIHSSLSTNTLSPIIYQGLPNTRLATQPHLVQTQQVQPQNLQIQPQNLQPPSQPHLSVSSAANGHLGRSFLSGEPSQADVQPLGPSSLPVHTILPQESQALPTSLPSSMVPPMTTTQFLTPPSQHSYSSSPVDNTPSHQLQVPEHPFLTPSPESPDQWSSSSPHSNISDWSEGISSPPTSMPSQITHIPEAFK
Notch1 of mouse neural stem cells (NSCs) (mouse), sequence (Q01705 19-2531 limits assumed): as the sequence (Q01705 19-2531) above

MAG transcripts, real-time PCR, primary OLs [1]: 24 fold
OPC differentiation into CNPase-positive OLs [1]: 75%
OL generation from NSCs, flow cytometry [2]: 2 fold
MAG staining intensity [3]: 2.5 fold
Substance: NB-3 (recombinant protein, as substrate or soluble; tag not stated at these places) (from UniProt P97528 20-999) (ligand)

Source: patent US8273855
